# Key:
# [1] = target: RSV A + RSV B bivalent composition (RSV subtype A; RSV subtype B); assay: AM14 prefusion assay relative to standard; RSV A + RSV B 240 µg/mL each, 2% sucrose + 4% mannitol; post-lyo 2 months at 5°C
# [2] = target: RSV A + RSV B bivalent composition (RSV subtype A; RSV subtype B); assay: AM14 prefusion assay relative to standard; RSV A + RSV B 240 µg/mL each, 2% sucrose + 4% mannitol; post-lyo T0
# AM14 (trimeric prefusion specific antibody of the AM14 ELISA), sequence (VH): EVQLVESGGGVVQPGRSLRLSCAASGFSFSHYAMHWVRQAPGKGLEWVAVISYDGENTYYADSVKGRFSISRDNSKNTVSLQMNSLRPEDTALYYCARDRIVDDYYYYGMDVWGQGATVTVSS
# AM14 (trimeric prefusion specific antibody of the AM14 ELISA), sequence (VL): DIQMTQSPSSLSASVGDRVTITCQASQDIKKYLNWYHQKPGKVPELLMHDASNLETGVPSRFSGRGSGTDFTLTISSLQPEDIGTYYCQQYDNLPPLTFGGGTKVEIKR
substance,measurement,setting,value
AM14 (trimeric prefusion specific antibody of the AM14 ELISA),"AM14 Prefusion Content (%), relative to standard",[1],116%
same,"AM14 Prefusion Content (%), relative to standard",[2],81%

# From patent US20260097113A1 (Pfizer, published 2026)
